According to paper PMC3656769:

B1: Transferrin receptor 2 (hTfR2): 3-Mut (protein)
parent chain: MERLWGLFQRAQQLSPRSSQTVYQRVEGPRKGHLEEEEEDGEEGAETLAHFCPMELRGPEPLGSRPRQPNLIPWAAAGRRAAPYLVLTALLIFTGAFLLGYVAFRGSCQACGDSVLVVSEDVNYEPDLDFHQGRLYWSDLQAMFLQFLGEGRLEDTIRQTSLRERVAGSAGMAALTQDIRAALSRQKLDHVWTDTHYVGLQFPDPAHPNTLHWVDEAGKVGEQLPLEDPDVYCPYSAIGNVTGELVYAHYGRPEDLQDLRARGVDPVGRLLLVRVGVISFAQKVTNAQDFGAQGVLIYPEPADFSQDPPKPSLSSQQAVYGHVHLGTGDPYTPGFPSFNQTQFPPVASSGLPSIPAQPISADIASRLLRKLKGPVAPQEWQGSLLGSPYHLGPGPRLRLVVNNHRTSTPINNIFGCIEGRSEPDHYVVIGAQRDAWGPGAAKSAVGTAILLELVRTFSSMVSNGFRPRRSLLFISWDGGDFGSVGSTEWLEGYLSVLHLKAVVYVSLDNAVLGDDKFHAKTSPLLTSLIESVLKQVDSPNHSGQTLYEQVVFTNPSWDAEVIRPLPMDSSAYSFTAFVGVPAVEFSFMEDDQAYPFLHTKEDTYENLHKVLQGRLPAVAQAVAQLAGQLLIRLSHDRLLPLDFGRYGDVVLRHIGNLNEFSGDLKARGLTLQWVYSARGDYIRAAEKLRQEIYSSEERDERLTRMYNVRIMRVEFYFLSQYVSPADSPFRHIFMGRGDHTLGALLDHLRLLRSNSSGTPGATSSTGFQESRFRRQLALLTWTLQGAANALSGDVWNIDNNF
B2: Transferrin receptor 2 (hTfR2): N240A (protein)
parent chain: B1 parent chain
B3: Transferrin receptor 2 (hTfR2): N339A (protein)
parent chain: B1 parent chain
B4: Transferrin receptor 2 (hTfR2): N754A (protein)
parent chain: B1 parent chain

Experiments:
Details in all cases: glycan lost; control: wild type
[1] = surface biotinylation, FLAG IP, nonreducing Avidin-HRP blot, Hep3B
[2] = nonreducing SDS-PAGE Western, Hep3B stable cells
[3] = cell surface biotinylation, Western, HEK 293
[4] = confocal immunofluorescence, nonpermeabilized HEK 293
[5] = Western after 12 h holo-Tf, Hep3B transient and stable

| Protein | localisation_or_trafficking [1] | oligomerisation [2] | localisation_or_trafficking [3] | localisation_or_trafficking [4] | other: holo-Tf-induced stabilisation (protein level), fold_change [5] |
| --- | --- | --- | --- | --- | --- |
| B1 | no change | decreases | no change | no change | – |
| B2 | – | – | – | – | no change |
| B3 | – | – | – | – | no change |
| B4 | – | – | – | – | no change |
